In assay [1] the target is T1, mammalian expressed RBD (mRBD) of SARS-CoV-2 spike (SARS-CoV-2, UniProt P0DTC2 319-541). In words: SPR. A general note: In SPR one partner is held on a chip, and binding of the other changes the refractive index at the surface.
The target of assay [2] is T1, mammalian expressed RBD (mRBD) of …. In words: SPR. The source holds these as a separate data set.

Where two headings read alike, the source gives them in different places.

Here are results for two molecules from article PMC9512702 (2022).

As a reminder, the koff is a measure of how fast the partners let go of each other. Low readings indicate slow dissociation, high ones fast dissociation.

For the molecule DKEWILQKIYEAMRLLDELADAEASMRVSDAIYEFMKK (designed binder) [SIH-14], in assay [1], the koff came to 0.00028 s⁻¹. In the case of DKEWILQKIYEEMRLLDELADAEASMRVSDEIYEFMKK (designed binder) [SIH-15], the koff in assay [2] came out at 0.00025 s⁻¹.
